The target in experiment [1] is human platelet glycoprotein Ib alpha (GPIb alpha), on human platelets (human) (UniProt P07359). In words: cell-based or functional assay.
The target is the same in experiment [2].
For experiment [3], the target named is human platelet integrin alphaIIb beta3, on human platelets (human) (UniProt P08514). Kind of experiment: cell-based or functional assay.
Experiment [4] concerns the target murine platelet glycoprotein Ib alpha (GPIb alpha), on mouse platelets (mouse) (UniProt O35930). Kind of experiment: cell-based or functional assay.
Experiment [5] deals with human platelet glycoprotein Ib alpha (GPIb alpha), on human platelets (human) (UniProt P07359). Kind of experiment: human whole blood perfused over surface-bound protein, parallel-plate flow chamber, 1600 s^-1.

This is an account of results in US20090202429A1.

Sequence of murine platelet glycoprotein Ib alpha (GPIb alpha), on mouse platelets (mouse) (O35930 17-734): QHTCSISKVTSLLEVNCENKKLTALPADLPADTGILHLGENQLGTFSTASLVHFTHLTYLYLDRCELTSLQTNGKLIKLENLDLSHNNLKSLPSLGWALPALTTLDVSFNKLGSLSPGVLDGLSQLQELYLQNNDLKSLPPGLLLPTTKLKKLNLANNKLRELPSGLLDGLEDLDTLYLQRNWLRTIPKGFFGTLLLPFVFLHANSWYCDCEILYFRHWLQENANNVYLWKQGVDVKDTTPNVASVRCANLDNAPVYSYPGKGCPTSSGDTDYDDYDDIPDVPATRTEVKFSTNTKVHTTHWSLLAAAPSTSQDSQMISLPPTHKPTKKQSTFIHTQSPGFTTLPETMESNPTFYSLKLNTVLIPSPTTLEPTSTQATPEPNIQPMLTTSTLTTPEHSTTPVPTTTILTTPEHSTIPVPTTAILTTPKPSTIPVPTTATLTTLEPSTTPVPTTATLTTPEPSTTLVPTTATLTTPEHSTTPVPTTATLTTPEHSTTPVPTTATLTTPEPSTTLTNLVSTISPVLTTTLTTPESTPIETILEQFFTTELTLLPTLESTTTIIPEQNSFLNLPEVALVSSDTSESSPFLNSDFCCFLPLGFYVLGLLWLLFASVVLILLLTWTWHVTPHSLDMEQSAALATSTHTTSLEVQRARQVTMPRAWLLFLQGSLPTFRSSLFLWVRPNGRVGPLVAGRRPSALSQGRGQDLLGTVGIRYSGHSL
Sequence of human platelet glycoprotein Ib alpha (GPIb alpha), on human platelets (human) (P07359 17-652): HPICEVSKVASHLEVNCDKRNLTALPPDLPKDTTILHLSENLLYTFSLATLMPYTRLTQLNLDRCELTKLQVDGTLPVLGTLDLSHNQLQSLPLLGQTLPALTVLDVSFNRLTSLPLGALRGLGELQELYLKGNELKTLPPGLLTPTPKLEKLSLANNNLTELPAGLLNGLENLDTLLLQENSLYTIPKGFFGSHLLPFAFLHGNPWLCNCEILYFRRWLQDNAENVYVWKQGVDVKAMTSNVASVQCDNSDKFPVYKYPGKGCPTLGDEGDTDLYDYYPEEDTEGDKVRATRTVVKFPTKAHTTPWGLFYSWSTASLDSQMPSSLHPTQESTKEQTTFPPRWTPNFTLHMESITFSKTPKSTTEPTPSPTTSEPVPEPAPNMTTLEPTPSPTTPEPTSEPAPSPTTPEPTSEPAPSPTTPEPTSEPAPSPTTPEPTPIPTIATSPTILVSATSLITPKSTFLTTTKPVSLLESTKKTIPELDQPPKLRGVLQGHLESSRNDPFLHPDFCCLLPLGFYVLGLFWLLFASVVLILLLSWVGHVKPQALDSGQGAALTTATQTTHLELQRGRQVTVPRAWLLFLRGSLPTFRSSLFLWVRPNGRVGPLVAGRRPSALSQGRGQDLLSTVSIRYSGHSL
Sequence of human platelet integrin alphaIIb beta3, on human platelets (human) (P08514 32-1039, chain 1 of 2): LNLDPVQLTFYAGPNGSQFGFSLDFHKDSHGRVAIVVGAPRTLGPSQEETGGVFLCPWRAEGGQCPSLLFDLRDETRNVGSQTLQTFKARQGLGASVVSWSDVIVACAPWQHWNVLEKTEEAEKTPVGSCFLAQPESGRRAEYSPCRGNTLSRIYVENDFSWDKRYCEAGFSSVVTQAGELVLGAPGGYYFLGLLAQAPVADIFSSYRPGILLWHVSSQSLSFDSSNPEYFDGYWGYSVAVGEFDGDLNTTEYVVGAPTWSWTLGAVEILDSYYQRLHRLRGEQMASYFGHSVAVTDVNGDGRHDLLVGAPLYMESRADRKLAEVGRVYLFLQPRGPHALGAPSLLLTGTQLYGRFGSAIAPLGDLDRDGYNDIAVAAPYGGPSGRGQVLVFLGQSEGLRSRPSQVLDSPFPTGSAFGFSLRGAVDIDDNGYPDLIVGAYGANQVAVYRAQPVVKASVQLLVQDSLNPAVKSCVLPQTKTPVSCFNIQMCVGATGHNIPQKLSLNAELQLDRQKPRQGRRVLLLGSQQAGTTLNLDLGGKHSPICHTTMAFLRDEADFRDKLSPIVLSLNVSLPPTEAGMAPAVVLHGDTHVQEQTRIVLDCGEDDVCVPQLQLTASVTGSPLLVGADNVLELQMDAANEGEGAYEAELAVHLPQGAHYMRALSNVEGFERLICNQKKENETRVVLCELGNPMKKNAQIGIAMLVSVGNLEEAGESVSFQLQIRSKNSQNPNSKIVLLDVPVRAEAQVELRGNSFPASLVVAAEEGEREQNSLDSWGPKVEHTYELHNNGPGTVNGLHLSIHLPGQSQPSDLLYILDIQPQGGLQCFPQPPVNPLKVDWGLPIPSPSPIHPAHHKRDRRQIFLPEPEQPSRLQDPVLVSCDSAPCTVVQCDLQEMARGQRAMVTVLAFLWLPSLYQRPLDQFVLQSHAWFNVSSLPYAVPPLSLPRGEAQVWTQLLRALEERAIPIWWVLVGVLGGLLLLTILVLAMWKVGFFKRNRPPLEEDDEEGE
Sequence of human platelet integrin alphaIIb beta3, on human platelets (human) (P05106 27-788, chain 2 of 2, further chain): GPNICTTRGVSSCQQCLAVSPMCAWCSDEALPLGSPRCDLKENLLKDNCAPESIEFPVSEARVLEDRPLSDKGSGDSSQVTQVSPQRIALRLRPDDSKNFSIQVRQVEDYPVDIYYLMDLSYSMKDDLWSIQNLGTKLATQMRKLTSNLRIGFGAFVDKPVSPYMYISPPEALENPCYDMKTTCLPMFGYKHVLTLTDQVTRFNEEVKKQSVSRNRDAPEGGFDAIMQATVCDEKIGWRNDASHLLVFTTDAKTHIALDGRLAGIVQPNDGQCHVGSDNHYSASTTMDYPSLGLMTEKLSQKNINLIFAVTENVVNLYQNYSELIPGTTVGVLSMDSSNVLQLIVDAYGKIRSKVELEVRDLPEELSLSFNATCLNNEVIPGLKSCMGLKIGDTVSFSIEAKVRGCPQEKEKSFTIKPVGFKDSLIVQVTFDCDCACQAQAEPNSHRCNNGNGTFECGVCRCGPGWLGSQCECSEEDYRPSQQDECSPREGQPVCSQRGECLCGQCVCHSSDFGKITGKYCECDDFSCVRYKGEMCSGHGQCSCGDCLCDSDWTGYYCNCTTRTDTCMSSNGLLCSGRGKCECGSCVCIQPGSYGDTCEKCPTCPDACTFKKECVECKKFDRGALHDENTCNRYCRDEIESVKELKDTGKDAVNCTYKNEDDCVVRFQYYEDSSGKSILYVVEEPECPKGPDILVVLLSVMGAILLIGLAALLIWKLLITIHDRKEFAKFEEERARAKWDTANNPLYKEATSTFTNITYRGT

Consider “function-blocking monoclonal antibody 6D1 (anti-human GPIb alpha)”, for which the thrombus size in VWF 1326R>H mice after pre-treatment of human platelets with mAb 6D1 in experiment [1] was 265 µm^2. The human platelet accumulation / mm2 on surface-immobilized murine plasma VWF 1326R>H at 1600 s^-1, human blood treated with mAb 6D1 in experiment [2] is 0 / mm2.

“function-blocking monoclonal antibody 7E3 (anti-human alphaIIb beta3)” had a thrombus size in VWF 1326R>H mice after treatment of human platelets with mAb 7E3 in experiment [3] of 529 µm^2.

As to “murine plasma VWF with the 1326R>H mutation (from homozygous VWF 1326R>H knock-in mice), Q8CIZ8 764-2813”, in experiment [1], the average thrombus size at laser-injured arterioles of homozygous VWF 1326R>H mice infused with human platelets came to 8950 µm^2, the share of human cells in thrombi at laser-injured arterioles of homozygous VWF 1326R>H mice was 91.7% and the translocation velocity of human platelets on immobilized plasma VWF is 3.5 µm/sec. In experiment [4], this substance came in with a thrombi formed on collagen-coated cover slips by whole blood of knock-in animals, 1600 s^-1, reduction against WT of 70% and a thrombus formation by whole blood of mutant mice over surface-immobilized collagen in vitro, reduction against WT of 80%.

Substance “murine plasma VWF, wild type, Q8CIZ8 764-2813” came in with a platelet deposition, % of same-species control in experiment [5] of 10%. Besides, in experiment [1], the share of human platelets in total thrombus area in WT mice came out at 5.7%. Besides, the ristocetin-induced platelet aggregation (RIPA), murine PRP, ristocetin ≧2.5 mg/ml in experiment [4] stood at 30%.
